According to patent US20100278838A1, “EPHA2 MONOCLONAL ANTIBODIES AND METHODS OF USE THEREOF” (MEDIMMUNE, LLC, priority 2002, published 2010):

System: EphA2 on transformed MDA-MB-231 cells
Test: Flow cytometry of EA2 binding, transformed cells with or without EGTA
Type: cell-based
Settings: 10 μg/ml EA2; 4 mM EGTA 10-15 minutes on ice
Procedure: (A, B) Non-transformed MCF-10A cells were labeled with EA2 at 4° C. either before (A) or after (B) treatment with EGTA and prior to fixation and immunolabeling with fluorophore-conjugated anti-mouse IgG. (C, D) Non-transformed MCF-10A (C) or transformed MDA-MB-231 (D) cells were labeled with EA2 either before (middle) or after (top) treatment with EGTA. Control cells were incubated with secondary antibody alone (bottom). The amount of EA2-EphA2 binding was measured using flow cytometry.
An equivalent experiment was performed using MCF-10A or MDA-MB-231 cells. The amount of EA2 binding to EphA2 was measured using flow cytometry (FIGS. 17C-17D). Cells were either treated by incubation in 4 mM EGTA for 10-15 minutes on ice (top panel) or were not treated with EGTA (middle panel) before incubation with 10 μg/ml EA2. Cells were then fixed with 3% formalin and labeled with fluorophore-labeled donkey anti-mouse IgG. Control cells were incubated only with secondary antibody (fluorophore-labeled donkey anti-mouse IgG) in the absence of primary antibody (EA2) (bottom panel). The samples were then evaluated using flow cytometry (Becton Dickinson FACStar Plus).

B1: EA2: EphA2 agonistic monoclonal antibody; ATCC deposit no. PTA-4380; co-pending application Ser. No. 10/436,783; VL SEQ ID NO:33, VH SEQ ID NO:37 (antibody, listed as Homo Sapiens, V domains shown)
VH: DVKLVESGGGLVKPGGSLKLSCAASGFTFSSYTMSWVRQTPEKRLEWVATISSGGTYTYYPDSVKGRFTISRDNAKNTLYLQMSSLKSEDTAMYYCTREAIFTYWGQGTLVTVSA
VL: DIKMTQSPSSMYASLGERVTITCKASQDINNYLSWFQQKPGKSPKTLIYRANRLVDGVPSRFSGSGSGQDYSLTISSLEYEDMGIYYCLKYDEFPYTFGGGTKLEIK
  Effect of EGTA treatment on EA2 binding, transformed cells: did not affect
